Biological target: sumf1_human SUMF1 (UniProt Q8NBK3)
Sequence (Q8NBK3 whole entry): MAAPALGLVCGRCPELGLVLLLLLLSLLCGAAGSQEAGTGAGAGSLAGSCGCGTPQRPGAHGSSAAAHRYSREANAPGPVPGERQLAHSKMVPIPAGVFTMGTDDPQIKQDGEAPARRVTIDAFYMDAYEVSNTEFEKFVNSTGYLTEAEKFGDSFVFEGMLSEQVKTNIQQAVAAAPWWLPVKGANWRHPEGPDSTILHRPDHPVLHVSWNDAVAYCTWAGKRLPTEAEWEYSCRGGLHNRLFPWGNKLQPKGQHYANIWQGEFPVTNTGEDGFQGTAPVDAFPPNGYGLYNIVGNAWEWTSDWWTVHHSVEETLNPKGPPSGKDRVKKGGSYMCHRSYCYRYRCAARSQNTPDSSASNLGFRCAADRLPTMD

Substance: Inactive C-alpha-formylglycine-generating enzyme 2 (Homo sapiens), Q8NBJ7 C156A;C290A
- effect of a mutation on the interaction: disrupting interaction strength

— IntAct's records for PubMed 15962010
